According to paper doi:10.1101/2025.09.20.677498:

How the values were obtained:
[1] = target: HAdV-D10 penton base (human adenovirus type 10 (HAdV-D10)); assay: cryo-EM structure
[2] = target: HAdV-D10 fiber protein (human adenovirus type 10 (HAdV-D10)); assay: cryo-EM structure

Row | Substance | stoichiometry N [1] | stoichiometry N [2]
1 | HAdV-D10 penton base (natural protein) | 5 | –
2 | HAdV-D10 fiber protein (natural protein) | – | 3
